We go through 17 variants from IntAct's records for PubMed 24744375.

B1: Disease resistance protein RPS4 (Arabidopsis thaliana (Mouse-ear cress)), Q9XGM3 (parent)
chain: METSSISTVEDKPPQHQVFINFRGADLRRRFVSHLVTALKLNNINVFIDDYEDRGQPLDVLLKRIEESKIVLAIFSGNYTESVWCVRELEKIKDCTDEGTLVAIPIFYKLEPSTVRDLKGKFGDRFRSMAKGDERKKKWKEAFNLIPNIMGIIIDKKSVESEKVNEIVKAVKTALTGIPPEGSHNAVVGALGNSNAGTSSGDKKHETFGNEQRLKDLEEKLDRDKYKGTRIIGVVGMPGIGKTTLLKELYKTWQGKFSRHALIDQIRVKSKHLELDRLPQMLLGELSKLNHPHVDNLKDPYSQLHERKVLVVLDDVSKREQIDALREILDWIKEGKEGSRVVIATSDMSLTNGLVDDTYMVQNLNHRDSLQLFHYHAFIDDQANPQKKDFMKLSEGFVHYARGHPLALKVLGGELNKKSMDHWNSKMKKLAQSPSPNIVSVFQVSYDELTTAQKDAFLDIACFRSQDKDYVESLLASSDLGSAEAMSAVKSLTDKFLINTCDGRVEMHDLLYKFSREVDLKASNQDGSRQRRLWLHQHIIKGGIINVLQNKMKAANVRGIFLDLSEVEDETSLDRDHFINMGNLRYLKFYNSHCPQECKTNNKINIPDKLKLPLKEVRCLHWLKFPLETLPNDFNPINLVDLKLPYSEMEQLWEGDKDTPCLRWVDLNHSSKLCSLSGLSKAEKLQRLNLEGCTTLKAFPHDMKKMKMLAFLNLKGCTSLESLPEMNLISLKTLTLSGCSTFKEFPLISDNIETLYLDGTAISQLPMNMEKLQRLVVLNMKDCKMLEEIPGRVGELKALQELILSDCLNLKIFPEIDISFLNILLLDGTAIEVMPQLPSVQYLCLSRNAKISCLPVGISQLSQLKWLDLKYCTSLTSVPEFPPNLQCLDAHGCSSLKTVSKPLARIMPTEQNHSTFIFTNCENLEQAAKEEITSYAQRKCQLLSYARKRYNGGLVSESLFSTCFPGCEVPSWFCHETVGSELEVKLLPHWHDKKLAGIALCAVVSCLDPQDQVSRLSVTCTFKVKDEDKSWVAYTCPVGSWTRHGGGKDKIELDHVFIGYTSCPHTIKCHEEGNSDECNPTEASLKFTVTGGTSENGKYKVLKCGLSLVYAKDKDKNSALETKYDMLIGKSFQETSEGVDGRVKKTKGKYVMPVEKNFQETTEGVDGRVNKKKKTRMDNGRPKKKQRSGRDDNQTRMQVELQEGNINSVIMHTVKNF
partner: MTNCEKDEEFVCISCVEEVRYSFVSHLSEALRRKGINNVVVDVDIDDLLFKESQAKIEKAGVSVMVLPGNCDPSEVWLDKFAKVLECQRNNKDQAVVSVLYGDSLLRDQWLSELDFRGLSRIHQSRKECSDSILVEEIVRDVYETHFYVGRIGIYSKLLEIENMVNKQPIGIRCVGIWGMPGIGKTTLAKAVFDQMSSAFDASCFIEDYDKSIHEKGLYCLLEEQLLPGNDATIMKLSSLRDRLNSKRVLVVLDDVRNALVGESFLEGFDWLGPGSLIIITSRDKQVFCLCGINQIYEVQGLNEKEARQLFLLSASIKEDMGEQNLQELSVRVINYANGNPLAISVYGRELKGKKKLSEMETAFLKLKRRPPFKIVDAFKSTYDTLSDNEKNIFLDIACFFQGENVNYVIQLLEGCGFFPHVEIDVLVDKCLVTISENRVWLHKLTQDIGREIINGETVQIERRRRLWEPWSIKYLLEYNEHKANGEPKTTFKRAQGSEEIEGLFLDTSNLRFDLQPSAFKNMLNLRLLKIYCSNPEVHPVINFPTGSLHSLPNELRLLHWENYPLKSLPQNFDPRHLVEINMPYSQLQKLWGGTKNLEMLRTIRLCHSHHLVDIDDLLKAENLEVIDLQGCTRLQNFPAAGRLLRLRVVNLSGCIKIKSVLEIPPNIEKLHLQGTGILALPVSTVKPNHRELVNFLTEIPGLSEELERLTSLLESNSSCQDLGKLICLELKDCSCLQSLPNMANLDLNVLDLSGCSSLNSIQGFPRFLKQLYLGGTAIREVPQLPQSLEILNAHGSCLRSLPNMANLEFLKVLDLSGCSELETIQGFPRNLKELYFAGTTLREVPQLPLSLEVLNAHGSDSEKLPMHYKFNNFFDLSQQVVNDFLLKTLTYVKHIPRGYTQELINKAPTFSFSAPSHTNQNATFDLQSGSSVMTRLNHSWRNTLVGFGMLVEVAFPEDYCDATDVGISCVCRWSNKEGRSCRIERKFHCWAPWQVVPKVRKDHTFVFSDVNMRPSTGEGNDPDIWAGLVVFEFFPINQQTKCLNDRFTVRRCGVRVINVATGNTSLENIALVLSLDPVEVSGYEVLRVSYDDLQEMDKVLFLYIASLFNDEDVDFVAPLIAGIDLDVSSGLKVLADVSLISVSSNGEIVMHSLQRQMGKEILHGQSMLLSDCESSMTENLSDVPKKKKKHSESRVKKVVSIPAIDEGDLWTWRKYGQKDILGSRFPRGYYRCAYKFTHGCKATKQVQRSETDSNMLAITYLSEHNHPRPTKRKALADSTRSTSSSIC
B2: Disease resistance protein RRS1 (Arabidopsis thaliana (Mouse-ear cress)), P0DKH5 (parent)
chain: B1 partner
partner: B1 chain

In the first assay the parent is B1. The note with it: with wrk52_arath RRS1, P0DKH5.
For the variant H34A, the “effect of a mutation on the interaction” value was “disrupting interaction strength”.

Variants of B1 are the subject of another assay. The settings on record: with wrk52_arath RRS1, P0DKH5. The source holds these as a separate data set.
Consider S33A;H34A, for which the “effect of a mutation on the interaction” value is reported as “disrupting interaction strength”.
In the case of E160A, the “effect of a mutation on the interaction” value was “disrupting interaction strength”.
The same measure, in the same setting: in the case of R30A it was “disrupting interaction strength”.
Still for that read-out and setting: in the case of R30E it was “disrupting interaction strength”; in that of K157A, “disrupting interaction strength”; in that of S33A, “disrupting interaction strength”.
With R29A, the “effect of a mutation on the interaction” value was “disrupting interaction strength”.

Variants of B2 are the subject of the next assay. The settings on record: with rps4_arath RPS4, Q9XGM3.
For the variant E128A, the “effect of a mutation on the interaction” value is reported as “disrupting interaction strength”.
As to S25A;H26A, the “effect of a mutation on the interaction” value is “disrupting interaction strength”.
For D103R, the “effect of a mutation on the interaction” value was “disrupting interaction strength”.
On the same count and under the same terms, in the case of D103A it was “disrupting interaction strength”; in that of S25A, “disrupting interaction strength”.
On the same count and under the same terms, as for Y101A, the entry is “disrupting interaction strength”.
In the case of D131A, the “effect of a mutation on the interaction” value was “disrupting interaction strength”.
Still for that read-out and setting: in the case of R20A it was “disrupting interaction strength”.

Variants of B2 are the subject of a further assay. The settings on record: with rps4_arath RPS4, Q9XGM3. This is another data set of the same source.
Turning to H26A, the “effect of a mutation on the interaction” value was “disrupting interaction strength”.
